Measured values taken from patent US20250276018A1 (AFFYIMMUNE THERAPEUTICS, published 2025).
Positions count from the first letter of the chain named. Numbers in names are those of the source. Where two headings read alike, the source gives them in different places.

Legend:
[1] = molecular target: T1, c-MET on human target cells (human, UniProt P08581 25-1390); experiment: cell-based or functional assay
[2] = molecular target: T2, AF647 labeled c-met protein (UniProt P08581 25-932, limits assumed, labeled with AlexaFluor 647 (AF647)); experiment: flow cytometry, AF647-labeled c-met protein titrated on CAR-T cells (Round 2)
T2 construct: Soluble labeled c-met protein titrated on CAR-T cells
T2 sequence (P08581 25-932 limits assumed): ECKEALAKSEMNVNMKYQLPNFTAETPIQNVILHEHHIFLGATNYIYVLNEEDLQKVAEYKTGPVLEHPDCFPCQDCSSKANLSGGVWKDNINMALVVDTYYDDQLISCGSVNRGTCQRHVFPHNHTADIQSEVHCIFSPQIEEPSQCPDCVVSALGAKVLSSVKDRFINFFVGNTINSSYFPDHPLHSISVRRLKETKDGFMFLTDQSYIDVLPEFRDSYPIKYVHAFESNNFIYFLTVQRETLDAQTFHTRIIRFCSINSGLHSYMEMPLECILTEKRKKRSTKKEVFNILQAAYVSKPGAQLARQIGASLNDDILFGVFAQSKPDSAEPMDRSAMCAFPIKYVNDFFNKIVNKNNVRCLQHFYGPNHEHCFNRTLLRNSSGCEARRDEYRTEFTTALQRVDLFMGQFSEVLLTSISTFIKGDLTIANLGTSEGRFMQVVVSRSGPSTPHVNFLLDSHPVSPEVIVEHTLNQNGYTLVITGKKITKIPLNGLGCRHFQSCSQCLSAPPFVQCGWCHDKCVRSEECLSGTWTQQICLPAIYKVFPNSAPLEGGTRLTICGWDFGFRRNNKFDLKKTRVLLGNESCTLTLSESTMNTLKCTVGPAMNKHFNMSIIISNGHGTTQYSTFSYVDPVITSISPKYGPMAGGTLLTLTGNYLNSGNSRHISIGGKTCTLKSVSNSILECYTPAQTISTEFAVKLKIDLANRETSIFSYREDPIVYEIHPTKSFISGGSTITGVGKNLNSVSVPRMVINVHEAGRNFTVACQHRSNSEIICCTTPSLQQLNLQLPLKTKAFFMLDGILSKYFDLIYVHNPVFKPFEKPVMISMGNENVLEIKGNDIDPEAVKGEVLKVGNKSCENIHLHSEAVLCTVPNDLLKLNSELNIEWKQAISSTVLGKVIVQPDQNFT
Procedure: (§1) Binding of labeled c-MET to CAR-T cells expressing the affinity tuned c-MET scFvs was evaluated by transducing lentivirus anti-c-MET CAR particles into human T cells to form c-MET CAR-T cells incubated with AF647-labeled c-MET. […] Following a 48 hr. incubation at 37° C., the culture media was brought up to […] per well and incubated at 37° C. for 10 days.
(§2) Cells were stained on ice for 30 mins and then washed with PBS. After washing, residually bound protein on CAR T cells were measured on a flow cytometer (Beckman, CytoFLEX®). The resulting binding data was fit using a non-linear regression analysis on GraphPad Prism to calculate half effective dose concentration (EC₅₀) values. The results of this analysis are shown in FIGS. 2-5 and Tables 2-5 below.

[3] = molecular target: T1, c-MET on human target cells; experiment: cell-based or functional assay; remark: listed apart in the source
[4] = molecular target: T2, AF647 labeled c-met protein; experiment: flow cytometry, EC50 relative to parental Affy6 CAR-T cells (Round 2)
Procedure: as §1, §2

[5] = molecular target: T1, c-MET on human target cells; experiment: cell-based or functional assay; remark: listed apart in the source
[6] = molecular target: T1, c-MET on human target cells; experiment: cell-based or functional assay; remark: listed apart in the source
[7] = molecular target: T1, c-MET on human target cells; experiment: cell-based or functional assay; remark: listed apart in the source
[8] = molecular target: T1, c-MET on human target cells; experiment: cell-based or functional assay; remark: listed apart in the source
[9] = molecular target: T2, AF647 labeled c-met protein; experiment: flow cytometry, EC50 relative to parental Affy7 CAR-T cells (Round 2)
Procedure: as §1, §2

[10] = molecular target: T1, c-MET on human target cells; experiment: cell-based or functional assay; remark: listed apart in the source
[11] = molecular target: T1, c-MET on human target cells; experiment: cell-based or functional assay; remark: listed apart in the source
[12] = molecular target: T1, c-MET on human target cells; experiment: cell-based or functional assay; remark: listed apart in the source
[13] = molecular target: T1, c-MET on human target cells; experiment: cell-based or functional assay; remark: listed apart in the source
[14] = molecular target: T1, c-MET on human target cells; experiment: cell-based or functional assay; remark: listed apart in the source
[15] = molecular target: T1, c-MET on human target cells; experiment: cell-based or functional assay; remark: listed apart in the source

T1 sequence (P08581 25-1390): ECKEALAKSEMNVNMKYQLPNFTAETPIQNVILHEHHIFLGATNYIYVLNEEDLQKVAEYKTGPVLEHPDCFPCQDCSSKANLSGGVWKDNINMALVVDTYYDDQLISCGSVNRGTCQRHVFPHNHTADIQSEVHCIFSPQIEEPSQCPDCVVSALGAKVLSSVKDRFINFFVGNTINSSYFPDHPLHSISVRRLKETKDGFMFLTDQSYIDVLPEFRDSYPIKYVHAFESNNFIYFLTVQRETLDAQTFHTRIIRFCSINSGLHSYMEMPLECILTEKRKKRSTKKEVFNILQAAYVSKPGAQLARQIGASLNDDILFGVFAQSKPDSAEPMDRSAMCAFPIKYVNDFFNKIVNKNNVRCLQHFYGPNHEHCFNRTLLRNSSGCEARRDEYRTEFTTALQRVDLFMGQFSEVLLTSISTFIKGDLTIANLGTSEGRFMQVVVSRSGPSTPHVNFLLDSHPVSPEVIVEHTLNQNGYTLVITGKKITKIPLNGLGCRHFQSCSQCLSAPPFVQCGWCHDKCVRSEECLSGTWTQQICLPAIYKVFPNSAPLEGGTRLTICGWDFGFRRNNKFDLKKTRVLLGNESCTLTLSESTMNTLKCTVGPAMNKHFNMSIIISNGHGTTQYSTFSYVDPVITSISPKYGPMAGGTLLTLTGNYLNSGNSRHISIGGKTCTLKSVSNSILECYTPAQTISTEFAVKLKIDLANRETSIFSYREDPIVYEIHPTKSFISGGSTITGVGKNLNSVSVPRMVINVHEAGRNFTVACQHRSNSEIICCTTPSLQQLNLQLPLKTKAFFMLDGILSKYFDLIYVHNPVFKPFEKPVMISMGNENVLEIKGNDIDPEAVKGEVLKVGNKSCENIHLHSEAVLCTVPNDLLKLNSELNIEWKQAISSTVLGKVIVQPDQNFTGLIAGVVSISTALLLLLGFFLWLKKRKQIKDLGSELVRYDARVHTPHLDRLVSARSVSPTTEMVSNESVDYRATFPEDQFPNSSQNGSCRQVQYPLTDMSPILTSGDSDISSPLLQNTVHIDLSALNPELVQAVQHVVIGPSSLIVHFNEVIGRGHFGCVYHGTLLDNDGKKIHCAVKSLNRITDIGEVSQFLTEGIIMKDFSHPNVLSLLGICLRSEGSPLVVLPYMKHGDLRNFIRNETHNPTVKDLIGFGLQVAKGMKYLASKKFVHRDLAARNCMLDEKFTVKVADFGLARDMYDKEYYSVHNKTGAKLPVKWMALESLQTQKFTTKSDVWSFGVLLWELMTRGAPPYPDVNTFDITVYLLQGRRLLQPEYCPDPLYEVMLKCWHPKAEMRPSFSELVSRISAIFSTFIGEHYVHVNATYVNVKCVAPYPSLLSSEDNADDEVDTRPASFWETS

B1: Affy6-I3F CAR (other)
chain: GSEQKLISEEDLGSQVQLVQSGAEVKKPGASVKVSCKASGYIFTAYTMHWVRQAPGQGLEWMGWIKPNNGLANYAQKFQGRVTMTRDTSISTAYMELSRLRSDDTAVYYCARSEFTTEFDYWGQGTLVTVSSGGGGSGGGGSGGGGSDIVLTQSPDSLAVSLGERATINCKSSESVDSYANSFMHWYQQKPGQPPKLLIYRASTRESGVPDRFSGSGSRTDFTLTISSLQAEDVAVYYCQQSKEDPLTFGGGTKVEIKASTTTPAPRPPTPAPTIASQPLSLRPEACRPAAGGAVHTRGLDFACDFWVLVVVGGVLACYSLLVTVAFIIFWVRSKRSRLLHSDYMNMTPRRPGPTRKHYQPYAPPRDFAAYRSLRVKFSRSADAPAYQQGQNQLYNELNLGRREEYDVLDKRRGRDPEMGGKPRRKNPQEGLYNELQKDKMAEAYSEIGMKGERRRGKGHDGLYQGLSTATKDTYDALHMQALPPR
notes: CAR on transduced human T cells; I to F in HC CDR3; P2A remnant not included; also called MycT-Affy6-I3F CAR-SSTR2
cytotoxicity, Normal Human Kidney Cells, 8 hrs [1]: 19.2 | cytotoxicity, Normal Human Kidney Cells, 16 hrs [1]: 28 | cytotoxicity, Normal Human Kidney Cells, 24 hrs [1]: 30.4 | cytotoxicity, Normal Human Kidney Cells, 32 hrs [1]: 27.8 | cytotoxicity, Normal Human Kidney Cells, 40 hrs [1]: 18.8 | cytotoxicity, Normal Human Kidney Cells, 48 hrs [1]: 16.5 | EC50 [2]: 20.5 µM | percent cytotoxicity, H1993, 24 hrs [3]: 64.7% | percent cytotoxicity, H1993, 48 hrs [3]: 91.3% | percent cytotoxicity, H1993, 72 hrs [3]: 97% | Fold Change [4]: 937 fold | cytotoxicity, Normal Human Colon Cells, 8 hrs [5]: 13.2 | cytotoxicity, Normal Human Colon Cells, 16 hrs [5]: 19.2 | cytotoxicity, Normal Human Colon Cells, 24 hrs [5]: 22.4 | cytotoxicity, Normal Human Colon Cells, 32 hrs [5]: 13.3 | cytotoxicity, Normal Human Colon Cells, 40 hrs [5]: 1.6 | cytotoxicity, Normal Human Colon Cells, 48 hrs [5]: 8.3 | cytotoxicity, Normal Human Lung Cells, 8 hrs [6]: 17.1 | cytotoxicity, Normal Human Lung Cells, 16 hrs [6]: 16.4 | cytotoxicity, Normal Human Lung Cells, 24 hrs [6]: 19.1 | cytotoxicity, Normal Human Lung Cells, 32 hrs [6]: 18 | cytotoxicity, Normal Human Lung Cells, 40 hrs [6]: 29.4 | cytotoxicity, Normal Human Lung Cells, 48 hrs [6]: 34.8 | cytotoxicity, Normal Human Liver Cells, 8 hrs [7]: 15.3 | cytotoxicity, Normal Human Liver Cells, 16 hrs [7]: 24.7 | cytotoxicity, Normal Human Liver Cells, 24 hrs [7]: 31.8 | cytotoxicity, Normal Human Liver Cells, 32 hrs [7]: 34.8 | cytotoxicity, Normal Human Liver Cells, 40 hrs [7]: 34.8 | cytotoxicity, Normal Human Liver Cells, 48 hrs [7]: 31.8

B2: Affy6-I3G CAR (other)
chain: B1 chain with F115G
notes: CAR on transduced human T cells; I to G in HC CDR3; P2A remnant not included; also called MycT-Affy6-I3G CAR-SSTR2
cytotoxicity, Normal Human Kidney Cells, 8 hrs [1]: 10.1 | cytotoxicity, Normal Human Kidney Cells, 16 hrs [1]: 17.9 | cytotoxicity, Normal Human Kidney Cells, 24 hrs [1]: 17.2 | cytotoxicity, Normal Human Kidney Cells, 32 hrs [1]: 15.8 | cytotoxicity, Normal Human Kidney Cells, 40 hrs [1]: 10.2 | cytotoxicity, Normal Human Kidney Cells, 48 hrs [1]: 14 | EC50 [2]: 151 µM | percent cytotoxicity, H1993, 24 hrs [3]: 32.5% | percent cytotoxicity, H1993, 48 hrs [3]: 68.1% | percent cytotoxicity, H1993, 72 hrs [3]: 81.6% | Fold Change [4]: 6900 fold | cytotoxicity, Normal Human Colon Cells, 8 hrs [5]: 8.2 | cytotoxicity, Normal Human Colon Cells, 16 hrs [5]: 14.4 | cytotoxicity, Normal Human Colon Cells, 24 hrs [5]: 16.4 | cytotoxicity, Normal Human Colon Cells, 32 hrs [5]: 11.4 | cytotoxicity, Normal Human Colon Cells, 40 hrs [5]: 2 | cytotoxicity, Normal Human Colon Cells, 48 hrs [5]: 10.7 | cytotoxicity, Normal Human Lung Cells, 8 hrs [6]: 14.8 | cytotoxicity, Normal Human Lung Cells, 16 hrs [6]: 17.3 | cytotoxicity, Normal Human Lung Cells, 24 hrs [6]: 19.5 | cytotoxicity, Normal Human Lung Cells, 32 hrs [6]: 18.4 | cytotoxicity, Normal Human Lung Cells, 40 hrs [6]: 28 | cytotoxicity, Normal Human Lung Cells, 48 hrs [6]: 33.1 | cytotoxicity, Normal Human Liver Cells, 8 hrs [7]: 9.6 | cytotoxicity, Normal Human Liver Cells, 16 hrs [7]: 13.7 | cytotoxicity, Normal Human Liver Cells, 24 hrs [7]: 18.1 | cytotoxicity, Normal Human Liver Cells, 32 hrs [7]: 22.3 | cytotoxicity, Normal Human Liver Cells, 40 hrs [7]: 22.5 | cytotoxicity, Normal Human Liver Cells, 48 hrs [7]: 20.5

B3: Affy7-Y6M CAR (other)
chain: GSEQKLISEEDLGSQVQLQQSGPELVRPGASVKMSCRASGYTFTSYWLHWVKQRPGQGLEWIGMIDPSNSDTRFNPNFKDKATLNVDRSSNTAYMLLSSLTSADSAVYYCATMGSYVSPLDYWGQGTSVTVSSGGGGSGGGGSGGGGSDIMMSQSPSSLTVSVGEKVTVSCKSSQSLLYTSSQKNYLAWYQQKPGQSPKLLIYWASTRESGVPDRFTGSGSGTDFTLTITSVKADDLAVYYCQQYYAYPWTFGGGTKLEIKRASTTTPAPRPPTPAPTIASQPLSLRPEACRPAAGGAVHTRGLDFACDFWVLVVVGGVLACYSLLVTVAFIIFWVRSKRSRLLHSDYMNMTPRRPGPTRKHYQPYAPPRDFAAYRSLRVKFSRSADAPAYQQGQNQLYNELNLGRREEYDVLDKRRGRDPEMGGKPRRKNPQEGLYNELQKDKMAEAYSEIGMKGERRRGKGHDGLYQGLSTATKDTYDALHMQALPPR
notes: CAR on transduced human T cells; Y to M in HC CDR3; P2A remnant not included; also called MycT-Affy7-Y6M CAR-SSTR2
percent cytotoxicity, H1993, 24 hrs [8]: 21.3% | percent cytotoxicity, H1993, 48 hrs [8]: 70.5% | percent cytotoxicity, H1993, 72 hrs [8]: 89.6% | Fold Change [9]: 172 fold | percent cytotoxicity, SNU638, 24 hrs [10]: 61.2% | percent cytotoxicity, SNU638, 48 hrs [10]: 77.5% | percent cytotoxicity, SNU638, 72 hrs [10]: 90.6% | EC50 [2]: 17.2 µM | cytotoxicity, Normal Human Lung Cells, 8 hrs [11]: 9.9 | cytotoxicity, Normal Human Lung Cells, 16 hrs [11]: 9.7 | cytotoxicity, Normal Human Lung Cells, 24 hrs [11]: 6.3 | cytotoxicity, Normal Human Lung Cells, 32 hrs [11]: 6.9 | cytotoxicity, Normal Human Lung Cells, 40 hrs [11]: 9.5 | cytotoxicity, Normal Human Lung Cells, 48 hrs [11]: 13.8 | cytotoxicity, Normal Human Liver Cells, 8 hrs [12]: 7.2 | cytotoxicity, Normal Human Liver Cells, 16 hrs [12]: 6.2 | cytotoxicity, Normal Human Liver Cells, 24 hrs [12]: 9 | cytotoxicity, Normal Human Liver Cells, 32 hrs [12]: 10.9 | cytotoxicity, Normal Human Liver Cells, 40 hrs [12]: 11.3 | cytotoxicity, Normal Human Liver Cells, 48 hrs [12]: 10 | percent cytotoxicity, Hs746T, 24 hrs [13]: 47.6% | percent cytotoxicity, Hs746T, 48 hrs [13]: 87% | percent cytotoxicity, Hs746T, 72 hrs [13]: 96.4% | cytotoxicity, Normal Human Kidney Cells, 8 hrs [14]: 8.8 | cytotoxicity, Normal Human Kidney Cells, 16 hrs [14]: 10 | cytotoxicity, Normal Human Kidney Cells, 24 hrs [14]: 12 | cytotoxicity, Normal Human Kidney Cells, 32 hrs [14]: 13.3 | cytotoxicity, Normal Human Kidney Cells, 40 hrs [14]: 15.9 | cytotoxicity, Normal Human Kidney Cells, 48 hrs [14]: 19.7 | cytotoxicity, Normal Human Colon Cells, 8 hrs [15]: 1.4 | cytotoxicity, Normal Human Colon Cells, 16 hrs [15]: 1.7 | cytotoxicity, Normal Human Colon Cells, 24 hrs [15]: 1.4 | cytotoxicity, Normal Human Colon Cells, 32 hrs [15]: 7.1 | cytotoxicity, Normal Human Colon Cells, 40 hrs [15]: 1.8 | cytotoxicity, Normal Human Colon Cells, 48 hrs [15]: 3.6

B4: Affy7-Y6V CAR (other)
chain: B3 chain with M113V
notes: CAR on transduced human T cells; Y to V in HC CDR3; P2A remnant not included; also called MycT-Affy7-Y6V CAR-SSTR2
percent cytotoxicity, H1993, 24 hrs [8]: 40% | percent cytotoxicity, H1993, 48 hrs [8]: 84.2% | percent cytotoxicity, H1993, 72 hrs [8]: 93.8% | Fold Change [9]: 53 fold | percent cytotoxicity, SNU638, 24 hrs [10]: 68.1% | percent cytotoxicity, SNU638, 48 hrs [10]: 81.9% | percent cytotoxicity, SNU638, 72 hrs [10]: 93.2% | EC50 [2]: 5.3 µM | cytotoxicity, Normal Human Lung Cells, 8 hrs [11]: 18.2 | cytotoxicity, Normal Human Lung Cells, 16 hrs [11]: 18 | cytotoxicity, Normal Human Lung Cells, 24 hrs [11]: 15.4 | cytotoxicity, Normal Human Lung Cells, 32 hrs [11]: 17.9 | cytotoxicity, Normal Human Lung Cells, 40 hrs [11]: 16.7 | cytotoxicity, Normal Human Lung Cells, 48 hrs [11]: 21.5 | cytotoxicity, Normal Human Liver Cells, 8 hrs [12]: 6.5 | cytotoxicity, Normal Human Liver Cells, 16 hrs [12]: 3.9 | cytotoxicity, Normal Human Liver Cells, 24 hrs [12]: 5.5 | cytotoxicity, Normal Human Liver Cells, 32 hrs [12]: 8.7 | cytotoxicity, Normal Human Liver Cells, 40 hrs [12]: 10.7 | cytotoxicity, Normal Human Liver Cells, 48 hrs [12]: 10.8 | percent cytotoxicity, Hs746T, 24 hrs [13]: 65% | percent cytotoxicity, Hs746T, 48 hrs [13]: 94.8% | percent cytotoxicity, Hs746T, 72 hrs [13]: 98.2% | cytotoxicity, Normal Human Kidney Cells, 8 hrs [14]: 9.3 | cytotoxicity, Normal Human Kidney Cells, 16 hrs [14]: 9.7 | cytotoxicity, Normal Human Kidney Cells, 24 hrs [14]: 10.6 | cytotoxicity, Normal Human Kidney Cells, 32 hrs [14]: 10.3 | cytotoxicity, Normal Human Kidney Cells, 40 hrs [14]: 11 | cytotoxicity, Normal Human Kidney Cells, 48 hrs [14]: 14.8 | cytotoxicity, Normal Human Colon Cells, 8 hrs [15]: 9.4 | cytotoxicity, Normal Human Colon Cells, 16 hrs [15]: 13.5 | cytotoxicity, Normal Human Colon Cells, 24 hrs [15]: 14 | cytotoxicity, Normal Human Colon Cells, 32 hrs [15]: 18.2 | cytotoxicity, Normal Human Colon Cells, 40 hrs [15]: 20.3 | cytotoxicity, Normal Human Colon Cells, 48 hrs [15]: 22.2
